Measurements as given in patent US20200116741A1 (University of California, published 2020).

Tests used:
human erythroferrone [1] = molecular target: T1, human erythroferrone (human, UniProt Q4G0M1 29-354); assay: sandwich ELISA on human serum, Mab#9 as capture antibody
T1 construct: Native hormone in human serum, detected by the Mab#9 / Mab#42 sandwich ELISA; also called hERFE; serum hERFE
T1 sequence (looked up): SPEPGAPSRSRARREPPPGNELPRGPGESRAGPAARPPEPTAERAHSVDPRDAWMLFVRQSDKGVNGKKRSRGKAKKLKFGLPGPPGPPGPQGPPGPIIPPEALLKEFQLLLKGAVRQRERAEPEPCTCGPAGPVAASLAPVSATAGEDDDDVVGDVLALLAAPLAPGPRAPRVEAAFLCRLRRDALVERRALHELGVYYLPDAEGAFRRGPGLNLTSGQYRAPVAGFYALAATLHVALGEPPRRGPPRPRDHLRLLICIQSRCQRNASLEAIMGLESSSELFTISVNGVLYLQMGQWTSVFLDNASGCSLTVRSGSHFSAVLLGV
Protocol: (§1) 96-well high binding plates (Costar #3590) were coated with Mab#9 diluted to 1 μg/ml in sodium carbonate buffer (50 mM, pH 9.6), overnight at 4° C. Plates were washed 3-times with TB S-T (TBS +0.05% Tween 20) then blocked for 1 hour at room temperature with 200 µl/well Blocking Buffer (BB: PBS,0.2% Na casein, 0.05% Tween 20, 0.1M NaCl). Recombinant hERFE2 standard was first diluted to 1 μg/ml and then serially diluted in BB to 10, 5, 2.5, 1.25, and 0.625 ng/ml. After a 1 hour incubation at 25° C. in a 300 rpm shaker, the plate was washed 4-times with TBS-T, 10 seconds, 25° C., and 300 rpm per wash and incubated 1 hour at 25° C., 300 rpm in shaker with 100 μl/well biotinylated Mab#42 (1 μg/ml in BB). After incubation for 1 hour at 25° C., 300 rpm in shaker, the plate was washed 4-times as before, incubated for 45 minutes with Neutravidin-HRP conjugate (ThermoScientific #31030) 1/5000 (100 μl/well) washed again 3-times as before and developed with 100 μl TMB Substrate System for ELISA (ThermoScientific #34028) at room temperature in the dark for 10 minutes. The reaction was stopped by adding 50 μl of 2N sulfuric acid and the plates were read on a Spectramax 250 (Molecular Devices) at 450 nm.

rhERFE1 [2] = molecular target: T2, rhERFE1 (human, UniProt Q4G0M1 29-354); assay: checkerboard sandwich ELISA, capture antibody
T2 construct: The FLAG tag was mostly lost during cell culture; also called recombinant hERFE; recombinant human erythroferrone 1
T2 sequence: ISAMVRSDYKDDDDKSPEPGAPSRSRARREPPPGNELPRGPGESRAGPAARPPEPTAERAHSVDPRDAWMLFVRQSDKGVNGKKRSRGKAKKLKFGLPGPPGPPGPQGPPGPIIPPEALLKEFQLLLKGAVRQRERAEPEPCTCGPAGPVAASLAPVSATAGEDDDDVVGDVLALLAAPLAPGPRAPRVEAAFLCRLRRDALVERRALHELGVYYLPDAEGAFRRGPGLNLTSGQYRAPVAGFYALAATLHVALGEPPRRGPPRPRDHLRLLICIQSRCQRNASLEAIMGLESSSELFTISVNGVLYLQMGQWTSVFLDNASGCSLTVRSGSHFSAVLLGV

[3] = molecular target: T3, peptide ELPRGPGESRAGPAARPP (human); assay: peptide epitope scanning
T3 peptide: ELPRGPGESRAGPAARPP

rhERFE2 = molecular target: T4, rhERFE2 (human, UniProt Q4G0M1 29-354); assay: hybridoma supernatant screening; checkerboard sandwich testing
T4 construct: also called Recombinant hERFE2; recombinant human erythroferrone 2
T4 sequence: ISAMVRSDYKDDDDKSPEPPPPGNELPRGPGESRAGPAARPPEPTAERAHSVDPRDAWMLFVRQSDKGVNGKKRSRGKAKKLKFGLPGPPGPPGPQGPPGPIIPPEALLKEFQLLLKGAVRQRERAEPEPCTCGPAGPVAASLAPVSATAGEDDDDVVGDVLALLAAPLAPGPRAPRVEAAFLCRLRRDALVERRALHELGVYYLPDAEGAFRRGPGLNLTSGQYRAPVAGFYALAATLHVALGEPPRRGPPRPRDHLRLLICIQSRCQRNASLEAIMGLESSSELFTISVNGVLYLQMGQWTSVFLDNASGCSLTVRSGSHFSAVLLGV
Text: Rabbit hybridomas were generated (custom order fulfilled by Abcam, Burlingame, Calif.) from rabbits immunized by rhERFE1 and boosted by rhERFE2. Hybridoma supernatants were selected for reactivity against rhERFE2. After biotinylation of Mabs (EZ-Link sulfo-NHS-LC-LC-Biotin kit, Thermo Fisher Scientific), optimal pair of unbiotinylated capture Mab and biotinylated detection Mab was chosen by checkerboard testing with rhERFE1 and rhERFE2. The cDNAs encoding the final Mab pair (#9 and #42) were cloned from the hybridomas and used to produce the Mabs recombinantly.

human erythroferrone [4] = molecular target: T1, human erythroferrone; assay: sandwich ELISA on human serum, biotinylated Mab#42 as detection antibody
Protocol: as §1

rhERFE1 [5] = molecular target: T2, rhERFE1; assay: checkerboard sandwich ELISA, biotinylated detection antibody

Measured: binding result

B1: Mab#9 (antibody, V domains shown)
VH: QSVEESGGRLVTPGTPLTLTCTVSGIDLNDNAMRWVRQAPGKGLEWIGVIYIDTSTYYASWAKGRFTISKTSSTTVDLKITSPTTEDTATYFCVREDGYRLGDVWGPGTLVTVSS
VL: ALVMTQTPSSVSAGVGGTVTINCQASQSLYNNNYLSWFQQKPGQPPKLLIYWASTLASGVPSRFSGSGSGTQFTLTISGVACDDAATYYCAGYKSSSNDDFAFGGGTEVVVKG
notes: Rabbit monoclonal from a hybridoma, later made recombinantly; Used unbiotinylated as the capture antibody in the ELISA; also called rabbit monoclonal antibody #9; capture Mab
binds: human erythroferrone [1] | rhERFE1 [2] | [3] | rhERFE2

B2: Mab#42 (antibody, V domains shown)
VH: QSLEESGGRLVTPGGSLTLTCTVSGIDLSSYEMGWVRQAPGKGLEWIGVIGTDGTAVYATWVKGRFTISKTSTTVDLKMTSLTTEDTATYFCARDSSGNSNYRAFDPWGPGTLVTVSS
VL: AYDMTQTPASVEVAVGGTVTIKCQASQSIYSYLSWYQQKPGQPPKLLIYRASTLASGVPSRFKGSGSGTQFTLTISDLECADAATYYCQQGFVISNVLNSFGGGTEVVVKG
notes: Rabbit monoclonal from a hybridoma, later made recombinantly; also called rabbit monoclonal antibody #42; biotinylated detection Mab
binds: human erythroferrone [4] | rhERFE1 [5] | rhERFE2
